Data: the DeepSol protein solubility set

Experiment: soluble on expression in E. coli; label from the status in PepcDB or PDB records

Sequence | soluble on expression in E. coli
MGSDKIHHHHHHMIIDAHTHVWPEKIAAKALAGRVPGMEAKFDGTVAGLKRSMDAAGIDHCVAFGIADHARHVERANEFISSQRSDWLTPFGTIHLDLSVEENMEILQRHGIKGVKLHPLFQRFRLDDRRLWALFDAFGSDIAVITHVGFGGQGSANENSTPQMIVDIARNFPKLRFMACHFGGFRRLDEAEKYVVGLPIVLETSWPPGLAEIPTERLRAIVHRHGPDRIIFGSDWPMVDPADEIEAIRRLELHPDDEAAILGGNLARILGMES | not soluble
MLIVGINGSPKKEGNTKYLINTVLEEAKSQGVETMVLEVGELLNSVKNPFCVVCSNPCSSICYKGTKLEEAYEILKKADAIVMGSPVYFGSVSAQLKAFFDKTRKLRSEKALYNKFACGVTVGGARFGGQETTMKALHDIMLVHGMTIVGDGYVGDDCGHHGVCAQQPADKDEFAIKRAKILGRRLVDVCKKAGALEHHHHHH | soluble
VASKAIFYHAGCPVCVSAEQAVANAIDPSKYTVEIVHLGTDKARIAEAEKAGVKSVPALVIDGAAFHINFGAGIDDLKGS | soluble
MSLAFEPPRRLVRAFGETAPEGDDWLATLPEVAERAVARRGLTVERVQVPGGRSSLVVLVRTAEGAPAVLKLAPRRARPESERAALVHWGGRGAVQVREEGDEEGVLLLERLHPDVSVRSLPEAKALLEAAGTLRRLWVEPPGSHPFETVAERTGRQAEAMRAGAAADAQVAPLVDAALAARAELLGGPSEQRLLHGTFRQSKVLAGDRMPWLAVGPDPVVGESAFDLARLVRDRVEDLIAQPSGASTTRRRIKRLAESLEVDQERLRGWTLFRAVESGVRARRVGRERDAELLLEFAGWLEGHHHHHH | not soluble
MQIEKIRDQKMKAVRVKKLSKLADEITINISGAKNALLHLIFASLIPDTKTKFTNVPITLLDYKGAKEILENVGAKVIEKDEEVTIDTAAISNETLELCGEMTSKTRCSLMLLGSLLKKKGRVKIGFPGGCSFSEKRPFDIHLNGLEALGAEVKLADDHIEVIYKEEKNAEFKMPFPSVGATMNLLMYAVTGNSEIVLENVALEPEVVTLIDYLNQCGANIDFDADSRKIKILGIMRLNGCEFEIIFDRIQAMTYAAMAYLYKTNVTITNINTQDTYSIKKPLEKLTNAGAKWEYNQANRSIKFFGKDSCIKGVDIIAAPFPHFPTDLQPIYAVMLFMANSSSTIQDTVYPERINYVYQIRKMGFNISIDNTLIKINPLKNLNDIRPAVMSVKDLRAGMACLMAGSLLDEFSTINNAHQIFRGYNNLIENMSHFMRIEILNDNV | not soluble
MAHHHHHHMDTRMKDLSFKVVLLGEGRVGKTSLISRYVHNAFDEKEASTVQASMHSSKAVPINDASSAPGAIREVDLALWDTAGQERFHALAPMYYRNADGAIIVYDVTDADTLRKVRTWAKELYAVVGEGKIQLVLCGNKADTPLAEREVSEGEGAAMAAELGASHFFASAKTGQNVAEVFSAMATQVARSREVTGMGGGVAAGGSSGSSGGGAYTGISGRTPSRSRARRGLMVVTEDGEAVTPGRSSPCEGRVYGGITPPRAHRYGSSGTNQPITLSADGSPDAAAAANKSGCC | soluble
MITIRNKIGQMLIMGFHGSELHDNSPVAQWLSNDGLGGVLLFDKDLSTGIYGKNLRNQAQIKQLIRQLNRYASMISGGNDNLPLFTAIDYEGGVVDRLSKIEGCPPTMKARELAKLSSDDFDEEVTQMAMTLQSLGFNLNFAPVVDLNLNAHAGIIGNLGRSFSSNPEVTIRLAKQFVDVFSRYGIACAYKHFPGHGSATGDTHEGFVDVTETFQTDELIPYRSLLKDLSNPFMVMTAHVINKHLDSKGLPATLSYDVLTLLLRQSIGYDGVIISDDLQMHAISNHYSLEDALCLTINAGADMVIFANQLGTITPPEVIDVIEKLVIDKQIPYQRIDEAYRRIVRLKQQIICSELINT | not soluble
MQDLGEVEEDPTELRIDVRHGFDTGPMNVQIAQLMQLATGRRRAPRQSSGSGIQLKIGGRIEVLSYQRKMHEAMKYLLGRLFGGKTVKVNHLAIGCKTILRIPTSFKLHVENLEILDTNTYNNMETVRLMIEASSLPLNMVKFRPTNFTTNNHPIVRTARMLYIHATSTRRRFRDFIEALARLKNIRVHVESRDLSSGSWYMTVFRCWMRYGKKVGTYYTFGTTEETINSAMKVFGRLYGSRTGFDGQITINLKKTSQVVIRKVQQENEWILGMKVESR | not soluble
MIREFSEDDIEPLATGAWILGTGGGGNPYISTLNLRRLYAEGRRVKVMDPMALADDDMVAVVSKMGAPLVGQERLGDPAHLARAVEVMEDYLGKPFRAIMSVEIGGSNALSSFLAAAVLDRPVVNADAMGRAYPEAQMTSFAIGNLPMFPLSLVDVRDNEVIVTRAASWKWMERISRKVCTEVGSTAATCKAPRTGKEVKEWGIHYTVTKATELGRAVMEARARHDDPVQAVLDHEGGKQLFRGKVVDVARETTGGFLRGSTTIEGIDADRGSRMELAFQNEWAVAFRDGQPVAMTPDLLCLLDTVSGGAIGTESVRYGQRVTVVALPAPELLTTPAGIDAVGPRAFGYDIDFRSVFPLEHHHHHH | soluble
MGSDKIHHHHHHMADNTPKFSQGSTSDTVGYEDFLVDLKTRISNAQLRAVVAVNKELVLLYWQIGRDILHRQQQQGWGAKVIDRLASDLRKAFPDIKGFSSRNLKYMRAFAEAYNDEEFVQQAVAQIPWGHNVRLLDAVKDPAERLWYAQQTIQNGWSRNVLVHQIESKLYQRQGKATTNFNNTLPQPQSELAQQLLKDPYTFDFLNLGEDFLERDLERALIKHIRDFLLELGVGFAFVGSQYHLEVGGEDFYIDLLFYHLRLRCFVVIDLKIEDFKPEFSGKMNFYVSAVDDLLRHPNDQSTIGIILCRSKNKVIAEYSLRDMYKPIGVSTYQLKDNLPEFVQDNLPTIEQLESELETVVLKLEKLDDL | not soluble
MQPTPSEYARTPVRIEMQRSKERNSMVYKEMYNDAQRKYSEALDRISKLTDAYLREKAEVENFIKIKDREVEMSKKNANEKLLKDFLPVLDSIDAAIQAEKDNNLIRIRDQMLGVLSRYGLKPIKAEGSKFDPYLHEVVGVTADGEDGMVKYEVQRGYTLNDGVLRTSKVIVVKR | not soluble
MSLTDHGFSFCAHAEQYAIIGSLSQLETSDNRDCDIRRPALNRCMAEKGTLRPEAAQIFQRLEALGLKQRELAQALGIEENKISKVRAGERQFKGAELLAAYEWLDQREAEAHMPRLSRVAAVGQQVIPATPVEGEVVQIQKLDLSLSMGPGTLIDGYVESELVSFDLGFVRLFTRAASDHLRLVTGIGDSMEPTLKWGDLILIDTTDRMLSKQDGIYWINLYGAAGIKRLRAIGPRTILVKSDNPGVDDQEVEAEDLRIEGRAIWATRGLEGHHHHHH | soluble
GPGSMVFFGVGATGGTGCGPKQACFPWLENSSATRCQRGGRINLRFMLDLPQGDTEAPSTNQKRAVYAFCPIVDELQVFTLKGAGRVSSLLQKTSSSGQASITPNPAPRYLSVFGFGRSGQKEYPERDVSNSTVVIAMRDIGLCNSPDSVAIVNMVILTIGMHDGKFNYISSDADTKEPDDSESGIPSGNSSGTGSPMESVQPAMVGFRPTCDESDHCIFSPTSPCVGPIRGMKNCGACYNTPDDIEGASIQVWTSYQGTDLERQPLLSGGMDPMGFRKFAGGKFVGNIKYAVSKIENTASGMMPGDETNSTP | not soluble
MTKLQLKYRELKIISVIAASENISHAATVLGIAQANVSKYLADFESKVGLKVFDRTTRQLMLTPFGTALLPYINDMLDRNEQLNNFIADYKHEKRGRVTIYAPTGIITYLSKHVIDKIKDIGDITLSLKTCNLERNAFYEGVEFPDDCDVLISYAPPKDESLVASFITQYAVTAYASQRYLEKHPISRPDELEHHSCILIDSMMIDDANIWRFNVAGSKEVRDYRVKGNYVCDNTQSALELARNHLGIVFAPDKSVQSDLQDGTLVPCFQQPYEWWLDLVAIFRKREYQPWRVQYVLDEMLREIRHQLAQSQQLRPEQAAESED | soluble
MEQQNTLNDIKQTIVFNASIQKVWSVVSTAEGIASWFMPNDFVLEVGHEFHVQSPFGPSPCKVLEIDEPNHLSFSWDTDGWVVSFDLKDLGDNKTEFTLIHGGWKHPDEILPKANAKSSIIRDRMSGGWVAIVNEKLKKVVEG | soluble
MARMKARSAKGKRVAKDTWKSKVWYDIYTPQSFGGDVIGQTPANDPANLIGRISEISLRDLTNEHSKHMTRMYFKVDGVSGNNATSQFVGHDTTREYLKSQVRRRRSKINAIVEVRTKDGFKVRVKALVLTAVRARDHHKTEIRVRMEQIIKEMAKETPFAEFVHAMLMGGLGSKIYGDCKKMFPLKRVEIFKSEVIEFGKAAEAPVEEAAAEEVVEEAAAETQELEHHHHHH | soluble
SLAVLGLGYAGLFKSQMESLEEYEAKETELKNTYKQKSIDAASLNNLRDELASIRSAFDIMLKQLPTDAEIPNLVQELHQAGSSNGLRLDSVMPQPPVDDGPIKRLPYSISITGNYEQISQFTRDVGSLSRIITLESLKIAQSPENGGNPDGKSSILNLSAIATTYQAKSVEELAAEAAQNAEQK | soluble
MSLALRLIERDPYEHPERLRQLQQELEAFRGQLGDVGALDTVWRELQDAQEHDARGRSIAIARCYSLKNRHQDVMPYDSNRVVLRSGKDDYINASCVEGLSPYCPPLVATQAPLPGTAADFWLMVHEQKVSVIVMLVSEAEMEKQKVARYFPTERGQPMVHGALSLALSSVRSTETHVERVLSLQFRDQSLKRSLVHLHFPTWPELGLPDSPSNLLRFIQEVHAHYLHQRPLHTPIIVHCSSGVGRTGAFALLYAAVQEVEAGNGIPELPQLVRRMRQQRKHMLQEKLHLRFCYEAVVRHVEQVLQRHGEGHHHHHH | soluble
MSYAYLFKYIIIGDTGVGKSCLLLQFTDKRFQPVHDLTIGVEFGARMVTIDGKQIKLQIWDTAGQESFRSITRSYYRGAAGALLVYDITRRDTFNHLTSWLEDARQHSNSNMVIMLIGNKSDLEARREVKREEGEAFAREHGLVFMETSAKTAANVEEAFIDTAKEIYRKIQEGVFDINNEANGIKLGPQHSPSSPNSPGGNATGGLGGGSGCC | not soluble
SNLDGSAQDPEKREYSSVCVGREDDIKKSERMTAVVHDREVVIFYHKGEYHAMDIRCYHSGGPLHLGDIEDFDGRPCIVCPWHKYKITLATGEGLYQSINPKDPSAKPKWCSKGIKQRIHTVTVDNGNIYVTLSNEPFKCDSDFYATGDFKVIKSSS | soluble
MNFLKKEPFKIFSMIYLLLDTITNRAGTERAVINLANNLHANGHRVSLVSVCTKEGEPSFQVEKGIEVHHLGIRLYGNALARKTVYFKAYRRIKALYKKREPVLLIGTNIFINTILSQISNRGRIFTIGCEHISYDIARPITKRIRGFLYSGLDAVVALTKRDQQSFEAILRGRSKAYVIPNQVSFTTVQRDATTHKQMLAIGRLTYQKGFEFMIEDASRVLRERPDWKLIIVGDGENESMLRKEIASRNMESQIEIHPSTPEIRKYYESSAIYLMTSRFEGLPMVLLEAEAYALPIISYDCPTGPRELIENGRNGFLVPMEAHEDFADKLRLLMDDETLRKKMGQESELMVKSYSPANIYECWKKLFVEIGYMN | soluble
